In US20260184814A1, “BROADLY NE[…] INFLUENZA NEURAMINIDASE” (priority 2022, published 2026):

Tests used:
[1] = test system: NA-1: N1 from A/Vietnam/1203/2004
[2] = test system: NA-5: N2 from A/Tanzania/205/2010
[3] = test system: NA-16: N2 from A/Switzerland/8060/2017
[4] = test system: NA-17: N2 from A/South_Australia/34/2019
[5] = test system: NA-18: N2 from A/Hong-Kong/2671/2019
[6] = test system: NA-19: N2 from A/Tanzania/205/2010 (82-469) S245NS247T
[7] = test system: H7N3_NA_A_Ck_Ja_PAVX17170_2017
[8] = test system: H5N6_NA_A_Hangzhou_01_2021

B1: FNI9-v13.8 (protein)
heavy chain: QVQLVQSGAEVKEPGSSVTVSCKASGGSFNNQAISWVRQAPGQGLEWMGGIFPISGTPTSAQRFQGRVTFTADESTTTVYMDLSSLRSDDTAVYYCARAGSDYFNRDLGWENYYFASWGQGTLVTVSS
light chain: EIVMTQSPATLSVSPGERATLSCRASRSVSSNLAWYQQKPGQAPRLLIYDASTRATGFSARFAGSGSGTEFTLTISSLQSEDSAIYYCQQYNNWPPWTFGQGTKVEIK
MUNANA vs NA antigens | A [1]: 30.6 µg/mL
MUNANA vs NA antigens | B [2]: 158.3 µg/mL
MUNANA vs NA antigens | C [3]: 834.9 µg/mL
MUNANA vs NA antigens | D [4]: 80455 µg/mL
MUNANA vs NA antigens | E [5]: 832.7 µg/mL
MUNANA vs NA antigens | F [6]: 1073 µg/mL
ELLA vs pseudoviruses | H [7]: 11.57 µg/mL
ELLA vs pseudoviruses | J [8]: 2.03 µg/mL
ELLA vs pseudoviruses | K (H7N7_NA_A_Ck_621572_03): 53.76 µg/mL
ELLA vs pseudoviruses | M (H7N9_NA_A_Anhui_1_2013): 1.701 µg/mL
